“And” between values parts separate entries of the source, which are not always exact repeats. Equal values may be shown once. One block for each binder: values may come before it.
Tests used:
soluble human RGMa [1] = molecular target: T1, soluble human RGMa (human, UniProt Q96B86 48-422, limits assumed); assay: SPR; method not named in Example 2
T1 construct: Soluble antigen in BIAcore; also called huRGMa; repulsive guidance molecule A
T1 sequence (looked up): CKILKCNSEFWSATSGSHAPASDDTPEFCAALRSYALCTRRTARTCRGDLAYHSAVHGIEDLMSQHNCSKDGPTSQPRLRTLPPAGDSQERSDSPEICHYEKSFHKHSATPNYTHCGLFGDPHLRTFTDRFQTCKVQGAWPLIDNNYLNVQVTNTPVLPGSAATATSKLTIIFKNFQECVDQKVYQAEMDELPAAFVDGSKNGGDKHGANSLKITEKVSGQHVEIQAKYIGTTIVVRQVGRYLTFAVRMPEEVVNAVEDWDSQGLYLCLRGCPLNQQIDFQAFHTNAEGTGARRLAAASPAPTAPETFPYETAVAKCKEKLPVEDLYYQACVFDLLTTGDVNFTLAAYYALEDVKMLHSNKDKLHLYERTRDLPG

soluble human RGMc [2] = molecular target: T2, soluble human RGMc (human, UniProt Q6ZVN8 36-400); assay: SPR; method not named in Example 2
T2 construct: also called huRGMc; soluble hRGMc
T2 sequence: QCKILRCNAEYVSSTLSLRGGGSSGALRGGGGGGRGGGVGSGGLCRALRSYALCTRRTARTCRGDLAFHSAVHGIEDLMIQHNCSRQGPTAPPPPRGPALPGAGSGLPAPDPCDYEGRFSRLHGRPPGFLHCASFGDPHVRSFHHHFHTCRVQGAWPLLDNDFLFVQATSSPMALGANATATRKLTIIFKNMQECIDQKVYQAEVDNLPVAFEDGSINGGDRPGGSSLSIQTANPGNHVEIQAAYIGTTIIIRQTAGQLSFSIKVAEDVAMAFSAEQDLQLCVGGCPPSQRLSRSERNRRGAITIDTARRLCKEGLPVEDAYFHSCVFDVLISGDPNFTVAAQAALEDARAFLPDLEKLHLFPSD

FcRn = molecular target: T3, FcRn; assay: SPR (BIAcore) at pH 6.0
T3 construct: also called neonatal Fc receptor

[3] = molecular target: T4, membrane-bound human RGMa (human, UniProt Q96B86 169-424); assay: cell-based or functional assay
T4 sequence (looked up): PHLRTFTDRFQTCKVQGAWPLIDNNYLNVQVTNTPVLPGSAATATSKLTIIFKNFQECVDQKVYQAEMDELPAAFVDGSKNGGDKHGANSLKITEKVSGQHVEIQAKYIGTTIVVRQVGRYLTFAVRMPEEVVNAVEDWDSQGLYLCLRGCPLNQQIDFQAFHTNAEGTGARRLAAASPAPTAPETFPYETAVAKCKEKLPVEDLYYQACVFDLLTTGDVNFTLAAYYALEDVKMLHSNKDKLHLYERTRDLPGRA

[4] = molecular target: T5, membrane-bound human RGMc (human, UniProt Q6ZVN8 36-400); assay: cell-based or functional assay
T5 sequence: T2 sequence

[5] = molecular target: T4, membrane-bound human RGMa; assay: cell-based or functional assay; remark: listed apart in the source
[6] = molecular target: T5, membrane-bound human RGMc; assay: cell-based or functional assay; remark: listed apart in the source
soluble human RGMa [7] = molecular target: T1, soluble human RGMa; assay: SPR (BIAcore);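 note: Anti-HJV antibodies tested for binding against soluble human RGMa by surface plasmon resonance on a BIAcore instrument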
Protocol: (§1) Binding affinities of the anti-HJV antibodies to soluble human RGMa, Rat RGMa and human RGMc were measured by BIAcore analysis.

[8] = molecular target: T5, membrane-bound human RGMc; assay: cell-based or functional assay; remark: listed apart in the source
[9] = molecular target: T4, membrane-bound human RGMa; assay: cell-based or functional assay; remark: listed apart in the source
soluble human RGMc [10] = molecular target: T2, soluble human RGMc; assay: SPR (BIAcore);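 note: Anti-HJV antibodies, binding affinity to soluble human RGMc measured by BIAcore surface plasmon resonance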
Protocol: as §1

soluble human RGMc [11] = molecular target: T2, soluble human RGMc; assay: SPR (BIAcore), soluble hRGMc; summary table
soluble rat RGMa = molecular target: T6, soluble rat RGMa (rat, UniProt D4A188 48-421); assay: SPR (BIAcore);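 note: binding kinetics and affinity of anti-HJV antibodies toward soluble rat RGMa, determined by SPR on a BIAcore instrument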
T6 construct: Soluble antigen in BIAcore
T6 sequence: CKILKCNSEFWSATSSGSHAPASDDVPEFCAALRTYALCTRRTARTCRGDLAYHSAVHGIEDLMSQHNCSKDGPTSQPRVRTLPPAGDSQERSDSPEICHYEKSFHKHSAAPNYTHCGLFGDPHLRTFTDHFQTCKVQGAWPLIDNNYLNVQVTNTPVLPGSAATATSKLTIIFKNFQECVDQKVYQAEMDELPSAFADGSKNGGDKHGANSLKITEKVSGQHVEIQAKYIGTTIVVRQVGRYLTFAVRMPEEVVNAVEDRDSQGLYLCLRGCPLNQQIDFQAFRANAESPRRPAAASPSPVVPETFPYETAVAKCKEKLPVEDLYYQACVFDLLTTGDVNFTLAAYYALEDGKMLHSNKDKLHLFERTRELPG
Protocol: as §1

Kd (soluble human RGMa [1]): 0.077 nM
koff (soluble human RGMa [1]): 3.3e-05 s⁻¹
kon (soluble human RGMa [1]): 430000 M⁻¹ s⁻¹
Kd (soluble human RGMc [2]): 0.12 nM
koff (soluble human RGMc [2]): 0.00033 s⁻¹
kon (soluble human RGMc [2]): 2.7e+06 M⁻¹ s⁻¹
Kd (FcRn): 900 nM and 882 nM
B1: hHA-008-QL (antibody, human IgG1, kappa, L234A L235A)
heavy: EVQLVESGGGLVQPGGSLRLSCAASGFTFSNYGMNWVRQAPGKGLEWIGMIYYDSSEKHYADSVKGRFTISRDNSKNTLYLQMNSLRAEDTAVYYCAKGTTPDYWGQGTMVTVSSASTKGPSVFPLAPSSKSTSGGTAALGCLVKDYFPEPVTVSWNSGALTSGVHTFPAVLQSSGLYSLSSVVTVPSSSLGTQTYICNVNHKPSNTKVDKKVEPKSCDKTHTCPPCPAPEAAGGPSVFLFPPKPKDQLMISRTPEVTCVVVDVSHEDPEVKFNWYVDGVEVHNAKTKPREEQYNSTYRVVSVLTVLHQDWLNGKEYKCKVSNKALPAPIEKTISKAKGQPREPQVYTLPPSREEMTKNQVSLTCLVKGFYPSDIAVEWESNGQPENNYKTTPPVLDSDGSFFLYSKLTVDKSRWQQGNVFSCSVLHEALHNHYTQKSLSLSPGK
light: DVVLTQSPLSLPVTLGQPASISCRSSQSLEESDGYTFLHWFQQRPGQSPRLLIYEVSTRFSGVPDRFSGSGSGTDFTLKISRVEAEDVGVYYCFQATHDPLTFGQGTKLEIKRTVAAPSVFIFPPSDEQLKSGTASVVCLLNNFYPREAKVQWKVDNALQSGNSQESVTEQDSKDSTYSLSSTLTLSKADYEKHKVYACEVTHQGLSSPVTKSFNRGEC
notes: hHA-008 with T250Q and M428L (QL) in the Fc besides L234A, L235A; kappa; also called hHA-008-QL (hIgG1mut(LALA)/QL/k)

IC50 (nM), BMP reporter assay for RGMa [3]: 1.66 nM
IC50 (read off the curve) [4]: ~0.5 nM
IC50 (read off the curve) [5]: ~2 nM
IC50 (nM), BMP reporter assay for RGMc (BRE-Luc, HEK293) [6]: 0.0554 nM
Kd (soluble human RGMa [7]): 0.11 nM
koff (soluble human RGMa [7]): 9.9e-05 s⁻¹
kon (soluble human RGMa [7]): 930000 M⁻¹ s⁻¹
Potency on membrane hRGMc (RGMc/BMP reporter assay), IC50 [8]: 0.52 nM
Potency on membrane hRGMa (RGMa/BMP reporter assay), IC50 [9]: 1.7 nM
Kd (soluble human RGMc [10]): 0.285 nM
koff (soluble human RGMc [10]): 0.0014 s⁻¹
kon (soluble human RGMc [10]): 5.05e+06 M⁻¹ s⁻¹
Kd (soluble human RGMc [11]): 0.285 nM
koff (soluble human RGMc [11]): 0.0014 s⁻¹
kon (soluble human RGMc [11]): 5.05e+06 M⁻¹ s⁻¹
Kd (soluble rat RGMa): 0.074 nM
koff (soluble rat RGMa): 5.2e-05 s⁻¹
kon (soluble rat RGMa): 700000 M⁻¹ s⁻¹
B2: hHA-011 (antibody, human IgG1, kappa, L234A L235A, V domains shown)
VH: EVQLVESGGGLVQPGGSLRLSCAASGFTFSNYGMNWVRQAPGKGLEWIGMIYYDSSEKHYADSVKGRFTISRDNSKNTLYLQMNSLRAEDTAVYYCAKGSTPDYWGQGTMVTVSS
VL: DVVLTQSPLSLPVTLGQPASISCRSSQSLEDSDGGTFLEWFQQRPGQSPRLLIYDVSSRFSGVPDRFSGSGSGTDFTLKISRVEAEDVGVYYCFQATHDPLSFGQGTKLEIKR
notes: hIgG1 L234A, L235A, kappa
